B1: Protein LDB19 (Saccharomyces cerevisiae), Q12502 (parent)
chain: MAFSRLTSTHQSNHNGYSNSNKKGQSLPLTLSIDVESPPCVLYGSAMESSGAVLSGLFTVTVVDPYSSAEDKSLKNTESNVSTTSKSLKRKSTFGSALSSRLSSLSASTSNISPSTSSTSISHSPTPANLRIMAGYTKITITSVTLSLVQKIHFHKPFVPNISSMQTCMNCKTKITNMKSWEIQSNTQDLSVGSHSYPFSYLIPGSVPCSSSLGATAETQVKYELIAVVTYIDPHRNSFSSGHSTPRKEGSSSKKRLLQLAMPIAVTRSIPRGPDKNSLRVFPPTELTAAAVLPNVVYPKSTFPLEMKLDGVSSGDRRWRMRKLSWRIEETTRVKAHACPVHKHELRQLEEQVKIKESEKSKKPRSHIKRYGELGPQIRVAVNSLENMPSQRLPGEPGREQAPNSSGPASTGNVGLDDENPVNEDEEDQPGSEFIHPSDDALRQELLMQQQRARQQQLQQELKNNSSLFTEEVRIISKGEMKSGWKTDFDNNGKIELVTEIDCMGLNSGVSNPVMHASTLQTPSTGNKKPSINVACDIQDPNLGLYVSHILAVEIVVAEETLQYANGQPIRKPNSKNKKETNNNTMNVHNPDQRLAELSPIFANRNTPKVRRMGPEDITPVNSNKSNHSTNKEKASNGASNSNIVSVPTGAARVLRMQFRLTVTERSGLGISWDEEVPPIYQDVELLSPPCYELSINNGIKNKLYSTMSTPVRSEDDFVGGSDEDIGNYESQGLEPGPNVQEVTITQNKLTIPPTAHHYQPASSSQRSLTTVQSPPLESVVSVQGSVPFRGHVLTPHSTRDIRIQNFSDFLDSNRITQ

This assay covers variants of B1. As to conditions: with rsp5_yeast RSP5, P39940.
rsp5_yeast RSP5, P39940, sequence (P39940 whole entry): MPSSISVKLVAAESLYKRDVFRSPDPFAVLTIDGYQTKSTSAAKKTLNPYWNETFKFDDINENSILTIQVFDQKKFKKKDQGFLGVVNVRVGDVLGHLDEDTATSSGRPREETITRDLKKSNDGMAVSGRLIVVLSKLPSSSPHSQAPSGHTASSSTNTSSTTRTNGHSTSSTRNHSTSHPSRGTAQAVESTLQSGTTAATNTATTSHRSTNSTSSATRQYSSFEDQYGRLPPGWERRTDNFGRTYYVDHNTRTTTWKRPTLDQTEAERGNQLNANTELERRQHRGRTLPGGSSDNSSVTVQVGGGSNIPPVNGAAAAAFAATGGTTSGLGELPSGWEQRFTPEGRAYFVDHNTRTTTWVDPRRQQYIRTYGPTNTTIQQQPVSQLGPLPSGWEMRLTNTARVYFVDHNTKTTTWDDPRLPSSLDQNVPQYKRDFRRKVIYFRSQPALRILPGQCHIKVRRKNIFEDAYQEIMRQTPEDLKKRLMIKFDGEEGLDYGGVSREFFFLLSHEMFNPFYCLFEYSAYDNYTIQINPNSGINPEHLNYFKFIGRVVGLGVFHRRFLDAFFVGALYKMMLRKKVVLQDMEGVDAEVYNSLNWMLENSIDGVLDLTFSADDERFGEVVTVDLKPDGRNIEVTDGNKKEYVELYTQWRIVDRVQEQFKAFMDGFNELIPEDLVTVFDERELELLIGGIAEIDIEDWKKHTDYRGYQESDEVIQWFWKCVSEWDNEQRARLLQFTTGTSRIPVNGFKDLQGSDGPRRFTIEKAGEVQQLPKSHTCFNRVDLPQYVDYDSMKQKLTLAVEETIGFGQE
In the case of P679A;Y681A, the “effect of a mutation on the interaction” value was “decreasing interaction”. For P690A;Y692A the value was “decreasing interaction”.

Values taken from IntAct's records for PubMed 18976803.
